T1: SDR5C1, wild type, N-terminally His-tagged (human), Q99714
T1 chain: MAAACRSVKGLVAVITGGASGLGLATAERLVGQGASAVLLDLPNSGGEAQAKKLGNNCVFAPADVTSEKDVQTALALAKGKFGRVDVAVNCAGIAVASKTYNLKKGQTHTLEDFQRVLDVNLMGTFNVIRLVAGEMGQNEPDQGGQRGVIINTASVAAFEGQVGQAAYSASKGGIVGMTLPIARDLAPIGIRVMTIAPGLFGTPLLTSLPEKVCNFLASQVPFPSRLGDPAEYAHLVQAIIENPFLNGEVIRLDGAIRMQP

B1: SDR5C1 N247S, N-terminally His-tagged (enzyme)
chain: MAAACRSVKGLVAVITGGASGLGLATAERLVGQGASAVLLDLPNSGGEAQAKKLGNNCVFAPADVTSEKDVQTALALAKGKFGRVDVAVNCAGIAVASKTYNLKKGQTHTLEDFQRVLDVNLMGTFNVIRLVAGEMGQNEPDQGGQRGVIINTASVAAFEGQVGQAAYSASKGGIVGMTLPIARDLAPIGIRVMTIAPGLFGTPLLTSLPEKVCNFLASQVPFPSRLGDPAEYAHLVQAIIENPFLSGEVIRLDGAIRMQP
B2: SDR5C1 P210S, N-terminally His-tagged (enzyme)
chain: MAAACRSVKGLVAVITGGASGLGLATAERLVGQGASAVLLDLPNSGGEAQAKKLGNNCVFAPADVTSEKDVQTALALAKGKFGRVDVAVNCAGIAVASKTYNLKKGQTHTLEDFQRVLDVNLMGTFNVIRLVAGEMGQNEPDQGGQRGVIINTASVAAFEGQVGQAAYSASKGGIVGMTLPIARDLAPIGIRVMTIAPGLFGTPLLTSLSEKVCNFLASQVPFPSRLGDPAEYAHLVQAIIENPFLNGEVIRLDGAIRMQP
B3: SDR5C1 K172A, N-terminally His-tagged (enzyme)
chain: MAAACRSVKGLVAVITGGASGLGLATAERLVGQGASAVLLDLPNSGGEAQAKKLGNNCVFAPADVTSEKDVQTALALAKGKFGRVDVAVNCAGIAVASKTYNLKKGQTHTLEDFQRVLDVNLMGTFNVIRLVAGEMGQNEPDQGGQRGVIINTASVAAFEGQVGQAAYSASAGGIVGMTLPIARDLAPIGIRVMTIAPGLFGTPLLTSLPEKVCNFLASQVPFPSRLGDPAEYAHLVQAIIENPFLNGEVIRLDGAIRMQP
B4: SDR5C1 R226Q, N-terminally His-tagged (enzyme)
chain: MAAACRSVKGLVAVITGGASGLGLATAERLVGQGASAVLLDLPNSGGEAQAKKLGNNCVFAPADVTSEKDVQTALALAKGKFGRVDVAVNCAGIAVASKTYNLKKGQTHTLEDFQRVLDVNLMGTFNVIRLVAGEMGQNEPDQGGQRGVIINTASVAAFEGQVGQAAYSASKGGIVGMTLPIARDLAPIGIRVMTIAPGLFGTPLLTSLPEKVCNFLASQVPFPSQLGDPAEYAHLVQAIIENPFLNGEVIRLDGAIRMQP
B5: SDR5C1 R130C, N-terminally His-tagged (enzyme)
chain: MAAACRSVKGLVAVITGGASGLGLATAERLVGQGASAVLLDLPNSGGEAQAKKLGNNCVFAPADVTSEKDVQTALALAKGKFGRVDVAVNCAGIAVASKTYNLKKGQTHTLEDFQRVLDVNLMGTFNVICLVAGEMGQNEPDQGGQRGVIINTASVAAFEGQVGQAAYSASKGGIVGMTLPIARDLAPIGIRVMTIAPGLFGTPLLTSLPEKVCNFLASQVPFPSRLGDPAEYAHLVQAIIENPFLNGEVIRLDGAIRMQP

How the values were obtained:
[1] = molecular target: B5; assay: pull-down
[2] = molecular target: B3; assay: pull-down
[3] = molecular target: B1; assay: pull-down
[4] = molecular target: B2; assay: pull-down
[5] = molecular target: B4; assay: pull-down
[6] = molecular target: T1, SDR5C1, wild type, N-terminally …; assay: native gel or EMSA; conditions: remark: other sources report otherwise
native gel or EMSA = molecular target: the molecule itself; assay: native gel or EMSA
SEC = molecular target: the molecule itself; assay: SEC

| Binder | Tetramerized SDR5C1 (percent) (native gel or EMSA) [%] | stoichiometry N (SEC) | other results |
| --- | --- | --- | --- |
| TRMT10C, native (untagged) (enzyme) MSSKIPAVTYPKNESTPPSEELELDKWKTTMKSSVQEECVSTISSSKDEDPLAATREFIEMWRLLGREVPEHITEEELKTLMECVSNTAKKKYLKYLYTKEKVKKARQIKKEMKAAAREEAKNIKLLETTEEDKQKNFLFLRLWDRNMDIAMGWKGAQAMQFGQPLVFDMAYENYMKRKELQNTVSQLLESEGWNRRNVDPFHIYFCNLKIDGALHRELVKRYQEKWDKLLLTSTEKSHVDLFPKDSIIYLTADSPNVMTTFRHDKVYVIGSFVDKSMQPGTSLAKAKRLNLATECLPLDKYLQWEIGNKNLTLDQMIRILLCLKNNGNWQEALQFVPKRKHTGFLEISQHSQEFINRLKKAKT |  |  | Complexed TRMT10C (mass percentage of the complex) [1]: 28.7%; Complexed TRMT10C (mass percentage of the complex) [2]: 43%; Complexed TRMT10C (mass percentage of the complex) [3]: 9.3%; Complexed TRMT10C (mass percentage of the complex) [4]: 39.7%; Complexed TRMT10C (mass percentage of the complex) [5]: 14.3% |
| SDR5C1, wild type, N-terminally His-tagged, Q99714 1-261 (enzyme) MAAACRSVKGLVAVITGGASGLGLATAERLVGQGASAVLLDLPNSGGEAQAKKLGNNCVFAPADVTSEKDVQTALALAKGKFGRVDVAVNCAGIAVASKTYNLKKGQTHTLEDFQRVLDVNLMGTFNVIRLVAGEMGQNEPDQGGQRGVIINTASVAAFEGQVGQAAYSASKGGIVGMTLPIARDLAPIGIRVMTIAPGLFGTPLLTSLPEKVCNFLASQVPFPSRLGDPAEYAHLVQAIIENPFLNGEVIRLDGAIRMQP |  |  | Tetramerized SDR5C1 (percent) [6]: 100% |
| B1 | 25.8 |  |  |
| B2 | 100 | 4 |  |
| B3 | 100 | 4 |  |
| B4 | 26 |  |  |
| B5 | 100 | 4 |  |

Reference: article PMC4446446 (Nucleic Acids Research, 2015)
